From the Human Domainome abundance scans (Beltran et al. 2025)
± gives the uncertainty stated by the source.

B1: Tumor protein 63, residues 545 to 610; numbered along this chain, Q9H3D4 (parent)
chain: TDCSIVSFLARLGCSSCLDYFTTQGLTTIYQIEHYSMDDLASLKIPEQFRHAIWKGILDHRQLHEF
B2: TGF-beta-activated kinase 1 and MAP3K7-binding protein 3, residues 12 to 50; numbered along this chain, Q8N5C8 (parent)
chain: VLHDLRQRFPEIPEGVVSQCMLQNNNNLEACCRALSQES

Variants of: B1
Assay: abundance fitness (aPCA) (normalised: wild type 0, dead -1); higher = more abundant; growth selection in yeast, the domain comes from the species named
Conditions: Homo sapiens

Abundance fitness: each site, then its substitutions
T1: G -0.027 ± 0.029; H -0.361 ± 0.15; Y -0.074 ± 0.046; C -0.063 ± 0.033; V -0.058 ± 0.042; F -0.034 ± 0.13; R -0.199 ± 0.026; N -0.04 ± 0.064; P -0.458 ± 0.16; M -0.041 ± 0.043; I -0.006 ± 0.041; D -0.039 ± 0.038; E -0.021 ± 0.054; A -0.064 ± 0.044; W -0.047 ± 0.05; K -0.122 ± 0.054; S -0.047 ± 0.027; Q -0.033 ± 0.065
V6: D -0.013 ± 0.035; A 0.028 ± 0.025; C -0.111 ± 0.035; E -0.067 ± 0.045
C3: H -0.08 ± 0.044; G -0.069 ± 0.018; M -0.005 ± 0.025; Y 0 ± 0.027; L -0.033 ± 0.02; I -0.029 ± 0.031; S -0.011 ± 0.022; N -0.021 ± 0.033; W -0.082 ± 0.02; T -0.015 ± 0.021; Q -0.031 ± 0.026; R -0.051 ± 0.018; D -0.043 ± 0.029; A -0.098 ± 0.021; V -0.15 ± 0.021; F -0.018 ± 0.063; K -0.075 ± 0.031
D2: E -0.079 ± 0.028; F -0.184 ± 0.088; G -0.11 ± 0.022; L -0.338 ± 0.026; Q -0.127 ± 0.047; A -0.147 ± 0.025; C -0.19 ± 0.042; V -0.22 ± 0.024; Y -0.182 ± 0.052; P -0.132 ± 0.033; R -0.202 ± 0.037; T -0.185 ± 0.041; S -0.101 ± 0.025; K -0.099 ± 0.037; H -0.17 ± 0.062; N -0.053 ± 0.03; W -0.275 ± 0.039
I5: F -0.362 ± 0.029; Y -0.971 ± 0.093; V -0.096 ± 0.02; G -0.878 ± 0.052; S -0.856 ± 0.036; E -0.976 ± 0.071; D -0.997 ± 0.1; Q -0.973 ± 0.081; M -0.021 ± 0.027; R -1.01 ± 0.054; T -0.479 ± 0.025; L -0.005 ± 0.022; P -1.04 ± 0.085; K -0.921 ± 0.067; H -0.647 ± 0.066; N -0.915 ± 0.089
S4: L -0.038 ± 0.017; W -0.224 ± 0.028; T -0.04 ± 0.019; K -0.075 ± 0.029; F -0.158 ± 0.026; H -0.114 ± 0.029; G -0.104 ± 0.019; V -0.632 ± 0.027; Q -0.078 ± 0.03; Y -0.164 ± 0.034; C -0.16 ± 0.03; P -0.17 ± 0.026; M -0.063 ± 0.021; E -0.066 ± 0.026; D -0.05 ± 0.027

Variants of: B2
Assay: as above
Conditions: Homo sapiens

Abundance fitness of substitutions, site by site:
A34: Y -0.328 ± 0.35; W -0.398 ± 0.047
S39: W -0.137 ± 0.072; K 0.052 ± 0.067; L -0.045 ± 0.067; Y -0.002 ± 0.06; Q 0.039 ± 0.065; G 0.001 ± 0.057; C -0.083 ± 0.07; E -0.104 ± 0.14; P -0.041 ± 0.064; F -0.213 ± 0.14; R 0.121 ± 0.05; A -0.255 ± 0.068; T 0.249 ± 0.12; M -0.077 ± 0.069
L35: P -0.488 ± 0.081; Q -0.629 ± 0.25; H -0.469 ± 0.12; C -0.6 ± 0.25; S -0.745 ± 0.069; D -0.784 ± 0.41; V -0.924 ± 0.1; A -0.793 ± 0.058; W -0.819 ± 0.089; F -0.697 ± 0.17; K -0.808 ± 0.13; T -0.603 ± 0.089; M -0.879 ± 0.15; R -0.811 ± 0.071; E -0.504 ± 0.13
Q37: G 0.009 ± 0.035; W -0.372 ± 0.048; V -0.122 ± 0.038; R -0.003 ± 0.034; K 0.107 ± 0.053; D -0.042 ± 0.066; S -0.014 ± 0.041; H -0.162 ± 0.073; P -0.537 ± 0.063; Y -0.345 ± 0.091; T -0.05 ± 0.047; N 0.151 ± 0.1; L 0.041 ± 0.039; I -0.107 ± 0.057; F -0.384 ± 0.072; C -0.129 ± 0.071; E 0.102 ± 0.035; M 0.043 ± 0.045; A 0.084 ± 0.038
S36: G -0.194 ± 0.042; L -0.186 ± 0.044; W -0.571 ± 0.08; H -0.314 ± 0.078; K -0.014 ± 0.062; V -0.365 ± 0.045; M -0.095 ± 0.071; D -0.018 ± 0.087; E 0.166 ± 0.046; C -0.315 ± 0.099; A 0.08 ± 0.042; Y -0.489 ± 0.1; I -0.108 ± 0.11; R -0.031 ± 0.042
E38: C 0.058 ± 0.068; W 0.264 ± 0.04; S -0.046 ± 0.044; P -0.029 ± 0.057; Y 0.093 ± 0.15; L 0.14 ± 0.065; F 0.109 ± 0.1; K 0.014 ± 0.046; M 0.224 ± 0.061; G -0.069 ± 0.036; V -0.073 ± 0.042; H 0.11 ± 0.054; Q 0.145 ± 0.055; D -0.045 ± 0.078; R 0.1 ± 0.047; T -0.118 ± 0.058
